Test results: US9072737B2, “tPA mutant in the treatment of acute brain injury and neurodegenerative disorders” (HADASIT MEDICAL RESEARCH SERVICES & DEVELOPMENT LTD., priority 2008, dated 2015)
Entries after “also recorded” stand apart in the source; their conditions may differ.

Tests used:
[1] = tested on: Blood Brain Barrier (BBB); assay: Blood brain barrier permeability, Evans blue uptake into brain; assay type: in vivo, mice; conditions: single i.p. injection 1 mg/kg, FIG. 3 and FIG. 4A
Protocol: The uptake of Evans blue dye into a brain tissue served as a marker to for quantifying disruption of the blood-brain barrier and increase in permeability of the BBB. […] Data was expressed as absorbance at 620 nm per gram of tissue. The mean±SEM of data from 8-9 animals/group are shown.
FIG. 4A. Mice were injected i.p. with 25 μl of saline or saline containing either WT-tPA or mtPA (1 mg/kg each) alone or together with PAI-1 derived 18 amino acids (aa) (as denoted by SEQ ID NO. 8) or 6 aa (as denoted by SEQ ID NO. 3) peptides (1 mg/kg each). Ten minutes later, the mice were given an i.v. injection of 2% Evans blue (EB) in saline. One hour after injection of dye, organs were cleared of blood by transcardiac perfusion. […] Extruded dye was quantified by absorbance at 620 nm. The figure presents a histogram illustration of the absorbance of EB at […] per gram of tissue. […]
To determine the effect of injection of tPA-S^481A on BBB function, anesthetized mice were injected i.p. with 25 μl of saline or saline containing tPA or tPA mutant (tPA-Ser^481Ala) (1 mg/kg each), followed by the intravenous injection of 2% Evans blue in saline. Evans blue was quantified by absorbance at 620 nm.
Plasminogen activator inhibitor-1 (PAI-1) is recognized as the inhibitor of tPA. […] Extruded dye was quantified by absorbance at 620 nm. Data are expressed in FIG. 4A as absorbance per gram of tissue.

CHI mice [2] = assay: Neurological severity score (NSS) in closed head injury (CHI) model; assay type: in vivo; conditions: for NSS at day 20 following CHI: FIG. 2, 100 μg/mice i.p. two hours after CHI, compared with saline control
Text: Briefly, after induction of ether anesthesia, a midline longitudinal incision was made, the skin was retracted and the skull was exposed. The left anterior frontal area was identified and a Teflon tipped cone (2-mm diameter) was placed 1 mm lateral to the midline, in the midcoronal plane. The head was held in place manually and a 75-g weight was dropped on the cone from a height of 18 cm, resulting in focal injury to the left hemisphere. […] In sham controls only anesthesia and skin incision were carried out.
Animals were awarded one point for failure to perform one item, so that scores can range from zero (healthy uninjured animals) to a maximum of 10, indicating severe neurological dysfunction, with failure to perform all tasks. The NSS obtained 1 h after trauma reflects the initial severity of injury and is inversely correlated with the neurological outcome. Animals were evaluated 5 h after CHI, and every two to three days until 20 days later. Each animal was assessed by an observer who was blinded to the treatment.
tPA has been reported to signal within the central nervous system by activating NMDA-R, a receptor for glutamine, implicated in neurotoxicity and exictotoxic neuronal cell death, through the cleavage of the NR-1 subunit of NMDA-R. The inventors therefore examined the effect of inhibiting tPA activation of NMDA-R on acute brain trauma, using a tPA mutated molecule devoid of serine protease catalytic activity. […] The effect of administering mutant tPA compositions was assessed using neurobehavioral evaluation based on the determination of a neurological severity score (NSS).

CHI mice [3] = assay: Brain lesion size at day 20 post CHI; assay type: in vivo; conditions: p<0.005 vs control animals
Protocol: After the last NSS evaluation (day 20 post CHI) the brains were then extracted and sectioned coronally into 1-mm segments. The sections were photographed and the area of each section was determined using the NIH computer image analysis program. Any missing area was estimated by overlaying the affected section with images from the contralateral side from the same animal. The volume of the missing portion of the brain was defined as the sum of the missing areas in all sections multiplied by their thickness expressed in cubic pixels. […] Taken together, the data collected indicate that the tPA-S481A has a neuroprotective effect.

plasminogen = assay: PA catalytic activity of tPA mutant; assay type: biochemical; conditions: data not shown
Text: Tissue type plasminogen activator (tPA) a multidomain, glycosylated, serine protease is a fibrin specific activator of plasminogen and a very effective thrombolytic agent. It should be appreciated that “mutated tPA” or “mtPA” as used herein includes a mutated native tPA and recombinant mutated tPA, as well as modified forms of tPA that is devoid of the enzymatic activities of native tPA. More specifically, as used herein in the specification and in the claims section below, the term “devoid of protease or serine protease catalytic activity” and its derivatives refers to a mutated tPA molecule having impaired, decreased or reduced expression of activity. A preferred mutated tPA molecule lacks any catalytic activity. According to one embodiment of the present invention at least about 10-100%, more specifically, about 10%, 15%, 20%, 25%, 30%, 35%, 40%, 45%, 50%, 55%, 60%, 65%, 70%, 75%, 80%, 85%, 90%, 95%, 99% and even 100% of the tPA activity is abolished by the point mutation performed by the invention, as compared to the WT (wild type) tPA activity. It should be noted that the enzymatic activity of tPA can be measured by assessing the ability of the molecule to convert plasminogen to plasmin.

[4] = tested on: Blood Brain Barrier (BBB) after CHI; assay: Duration of BBB permeability after CHI, Evans blue extravasation; assay type: in vivo, mice; conditions: mtPA i.p. 1, 2 or 3 hours after CHI; EB measured one hour after dye; FIG. 5
Protocol: Mice were treated with i.p. injection of mtPA 1, 2 or 3 hours after CHI. Five minutes after mtPA injection, the animals were given an IV injection of 2% Evans blue (EB) in saline. Extravasation of EB was measured one hour after injection of the dye. The figure presents a histogram illustration of the absorbance of EB at 620 nM per gram of tissue. The mean±SEM of data from 8-9 animals/group is shown. Abbreviations: Abs (Absorbance), T (time), h (hour), min. (minutes).
To examine the effect of tPA-S481A (mtPA) on BBB permeability after opening due to CHI, the tPA mutant was injected to 8-9 mice i.p. 1, 2 or 3 hours after CHI. Mice undergoing CHI alone served as controls for the indication of normal BBB behavior after head trauma. In both groups, the extravasation of EB was measured one hour after injection of the dye.

CHI mice [5] = assay: Lactate and glutamate concentration in CSF after CHI; assay type: in vivo; conditions: 100 μg/mice i.p. two hours after CHI
Protocol: CSF samples were taken from the cisterna magna in anaesthetized mice, using a microcapillary as described by others. Samples were immediately frozen at −70° C. until analysis by high-performance liquid chromatography (HPLC). Glutamate and lactate were derivatized using ortho-phthaldialdehyde/b-mercaptoethanol and the samples were injected onto the column. Peaks were detected using a fluorescence detector.
Therefore, groups of 8-9 animals were injected with mutant tPA, (100 μg/mice) in saline or saline alone intraperitoneally (i.p.) two hours after the head trauma and, the concentration of lactate and glutamate in the CSF have been measured.

| Molecule | BBB permeability (Evans blue absorbance at 620 nm per gram of tissue) [1] | NSS at day 20 following CHI (CHI mice [2]) | Lesion size (volume of missing portion of the brain) (CHI mice [3]) | PA catalytic activity (plasminogen) | BBB permeability (Evans blue absorbance at 620 nm per gram of tissue) ([1]; 1 mg/kg) | neurological severity score (NSS) (CHI mice [2]; FIG. 1, 100 μg/mice i.p. two hours after head trauma, 10-point scale) | duration of increased BBB permeability after CHI [4] | accumulation of lactate in CSF post-TBI (CHI mice [5]; FIG. 6A) | accumulation of glutamate in CSF post-TBI (CHI mice [5]; FIG. 6B) |
| --- | --- | --- | --- | --- | --- | --- | --- | --- | --- |
| WT tPA: Recombinant wild type human tissue plasminogen activator expressed in S2 Drosophila system, SEQ ID NO. 2 (protein, listed as Homo sapiens) GARSYQVICRDEKTQMIYQQHQSWLRPVLRSNRVEYCWCNSGRAQCHSVPVKSCSEPRCFNGGTCQQALYFSDFVCQCPEGFAGKCCEIDTRATCYEDQGISYRGTWSTAESGAECTNWNSSALAQKPYSGRRPDAIRLGLGNHNYCRNPDRDSKPWCYVFKAGKYSSEFCSTPACSEGNSDCYFGNGSAYRGTHSLTESGASCLPWNSMILIGKVYTAQNPSAQALGLGKHNYCRNPDGDAKPWCHVLKNRRLTWEYCDVPSCSTCGLRQYSQPQFRIKGGLFADIASHPWQAAIFAKHRRSPGERFLCGGILISSCWILSAAHCFQERFPPHHLTVILGRTYRVVPGEEEQKFEVEKYIVHKEFDDDTYDNDIALLQLKSDSSRCAQESSVVRTVCLPPADLQLPDWTECELSGYGKHEALSPFYSERLKEAHVRLYPSSRCTSQHLLNRTVTDNMLCAGDTRSGGPQANLHDACQGDSGGPLVCLNDGRMTLVGIISWGLGCGQKDVPGVYTKVTNYLDWIRDNMRP | increased BBB permeability | significantly higher than that of control mice | 167289±31456 pixels |  |  |  |  |  |  |
| tPA-S481A: Recombinant human tPA with Ser481 to Ala point mutation, catalytically inactive, two extra N-terminal residues RS, SEQ ID NO. 1 (protein, listed as Homo sapiens) RSGARSYQVICRDEKTQMIYQQHQSWLRPVLRSNRVEYCWCNSGRAQCHSVPVKSCSEPRCFNGGTCQQALYFSDFVCQCPEGFAGKCCEIDTRATCYEDQGISYRGTWSTAESGAECTNWNSSALAQKPYSGRRPDAIRLGLGNHNYCRNPDRDSKPWCYVFKAGKYSSEFCSTPACSEGNSDCYFGNGSAYRGTHSLTESGASCLPWNSMILIGKVYTAQNPSAQALGLGKHNYCRNPDGDAKPWCHVLKNRRLTWEYCDVPSCSTCGLRQYSQPQFRIKGGLFADIASHPWQAAIFAKHRRSPGERFLCGGILISSCWILSAAHCFQERFPPHHLTVILGRTYRVVPGEEEQKFEVEKYIVHKEFDDDTYDNDIALLQLKSDSSRCAQESSVVRTVCLPPADLQLPDWTECELSGYGKHEALSPFYSERLKEAHVRLYPSSRCTSQHLLNRTVTDNMLCAGDTRSGGPQANLHDACQGDAGGPLVCLNDGRMTLVGIISWGLGCGQKDVPGVYTKVTNYLDWIRDNMRP |  | significantly improved initial (not shown) and long-term (FIG. 2) neurological outcome | 41525±10987 pixels | lacks any PA catalytic activity | increased BBB permeability similar to the results of wild type; also recorded: increases BBB permeability to the same extent as WT-tPA | 0.43 | markedly extended the duration of increased BBB permeability | clearly alleviates the accumulation | clearly alleviates the accumulation |
